Experiment: soluble on expression in E. coli; label from the status in PepcDB or PDB records

| Sequence | soluble on expression in E. coli |
| --- | --- |
| MGSDKIHHHHHHMHIAIMSRNKNLYSTSRLKEAAEARGHVIKIVDPLKCYMNINMNAPSIHVRGEELPKFDAVIPRIGASVTFYGTAVLRQFEMMGTHPLNESVAITRSRDKLRSLQLLSRKNIGLPVTGFASKPADIPDLLDMVGGAPCVIKLLEGTQGIGVVLAETRKAAESVIEAFMGLKANIMVQEYIAEAGGADIRCFVIGDKVIAAMKRQALPGEFRSNLHRGGSASIVKLTPEERSTALRAAKTMGLNVAGVDILRSKHGPLVMEVNSSPGLEGIEKATGIDVAEKIIQFIEKNVKSTSSKTKGVG | not soluble |
| MGSDKIHHHHHHMRPDCTDFRQLFLDDVPMMDMRAPVEFAKGAFPGVVNLPLMNDQERQKVGTCYKQQGQAAAIALGHQLVSGATKQARLEAWAAFAKAHPDGYLYCFRGGLRSQIVQGWLRDEAGIQYPRVKGGYKAMRTFLLETTQQAVEQCDFVLVGGLTGTGKTDVLHQLDNVLDLEGHANHRGSSFGKRATAQPAQIDFENQLAIDVLKKRARGIGQFVLEDEGRIVGSCTVPLELYQGMQHYPLVWLEDSFTNRVERILRDYVVNLSAEFKAVHGEEDGPRLFAERMLQSMANIYKRLGGERHQRLSEMLREALQEQQRSGAVDLHRGWIEGLLNEYYDPMYAYQRAAKAERIEFAGDAVEVREYLKARALRQPRK | not soluble |
| MAILRLEPQQLYSVADLENMPCKSTKELPPIDEIVGQERAQKAVEFAMSIKEKGYNIYAIGQNGLGKRTMILRYLNRHQHDADALFDWCYVANFEDTRTPKVLKLPCGIGNKLRVDIEALMGKLLNALPLAFDNEMYFSRADRLKNQLANKQQNELDRISREAKEHGISLTITSQGDYQFVAMNGDELHTEESFDALSKKEQEQFSDSIDALEVSLRSMVRELTEWEDTYSDKIKKLNDEVTLDVITHFIKKLKVDYSEYSEIKTYLTELQKDIVENADIFLDQSGEQGEIAAASLDKKLPRRYKVNVLVSRNNSDFPIVVEENPNYHSLFGSIETATFKGTVFTDFSLIRAGSLHKANGGVLLMDAQKVLEQPYVWDGLKRALRARQLSFTSLEKEVTLTGAVSLDPEPIPLDIKIILFGDYRTYQLLQHYDPEFSELFRVTADFEDEMKRTPESELHYARFISSVVHDNNMLHCDRKAIARIIEYSSRLSGDQSKLSLHSANIANLLRESNYVARQANSNMIRIGHVEEAMKNQEMRVSRLRDSVMETFLNGTT | not soluble |
| MCRIPVMIVSQPKQLKALSDPTRIKILELLREHPMSVSEIAERLGRDKSTVYRHIKALEDAGLVEVVEKIGNEVVYGRVAYVFLLVPNSNKEIEDLRRAYLSREVEKLIEVLEDSGIRIRDKEKFRSIVQKVFRDIENQSQHILSRLMNSSFDEIALIHILNFLTFLYSHKYVEESKQLFKLLDI | soluble |
| NLYFQGHMDNVDELRKIENKSSFVSADNMPEYVKGAFISMQDERFYNHHGFDLKGTTRALFSTISDRDVQGGSTITQQVVKNYFYDNDRSFTRKVKELFVAHRVEKQYNKNEILSFYLNNIYFGDNQYTLEGAANHYFGTTVNKNSTTMSHITVLQSAILASKVNAPSVYNINNMSENFTQRVSTNLEKMKQQNYINETQYQQAMSQLN | soluble |
| MGSDKIHHHHHHMLVLNNLQKKFTNSKMVLNNVNAKFRSGSINCIVGVNGAGKTTLLNIISSILMPTKGDVYLNSESIFENSTLKKEIFYTPVNPFFYENLSAKDNLYLICSLYNRKIDQITIEKTIKDVGLNIEDLNIPVYNFSSGMKQKLNFASMLLVDSNVLLLDEPFNALDHVAQKNFTRILKGLVSKEKIIIFTSHLPNTILELSENIYLLKDGCFTDKRKAQSFNQTTLETWLLESQKEVIPYEEK | not soluble |
| MSLASISPQGSMSLLSQLEIERLKASSNSQLYKLFRNCCLAVLNAGSHTDSSADIYDSYKDFEVNIIRRERGIKLELIEPPEEAFVDGEVIVGIRELLESVLRDILFTGERYSETDLEHADSATLTHVVFDILRNARTLRPQEEPNMVVCWGGHSINEIEYKYTKDVGYHIGLRGLNICTGCGPGAMKGPMKGATIGHAKQRVEGGRYLGLTEPGIIAAEPPNPIVNELVILPDIEKRLEAFVRCAHGIVIFPGGAGTAEELLYLLGILMHPDNQRQSLPVILTGPASSRDYFEALDEFIGATIGDEARQLYKIIIDDPAAVAQHMHAGMAAVKQYRRDSGDAYYFNWTLKINEEFQRPFSPTHENVAALNLHPDQPKERLAADLRRAFSAIVAGNVKDEGIRQIRKNGVFTIHGEQSLMKRLDELLRAFVEQGRMKLPGSVYNPCYKVITDEGHHHHHH | soluble |

— the DeepSol protein solubility set
